Data published in patent US20250177445A1 (A2 BIOTHERAPEUTICS, published 2025).

Biological target: HLA-E*01:03 expressed on HLA-E knockout HeLa cells by mRNA transfection (human, UniProt P13747 22-358)
Assay: cell-based or functional assay

B1: HLA-E activator receptor (third generation CAR: HLA-E scFv, CD8 hinge, CD28 transmembrane domain, CD28/41BB/CD3 intracellular domain) (receptor)
chain: QVQLRESGPSLVKPSQTLSLTCTVSGFSLTSYGVHWVRQPPGKGLEWLGVIWTGGTTNYNTALMSRLSITKDNSKSQVFLKMNSLQTDDTAIYYCARDGDSYNREAWFAYWGQGTLVTVSAGGGGSGGGGSGGGGSGGQIVLTQSPAVISASPGEKVILTCSASSSVSYMHWFQQKPGTSPKLWIYGTSNLASGVPARFSGGGSGTSYSLTISRMEAEDAATYYCQQRSRYPFTFGSGTKLEIKTTTPAPRPPTPAPTIASQPLSLRPEACRPAAGGAVHTRGLDFACDFWVLVVVGGVLACYSLLVTVAFIIFWVRSKRSRLLHSDYMNMTPRRPGPTRKHYQPYAPPRDFAAYRSKRGRKKLLYIFKQPFMRPVQTTQEEDGCSCRFPEEEEGGCELRVKFSRSADAPAYKQGQNQLYNELNLGRREEYDVLDKRRGRDPEMGGKPRRKNPQEGLYNELQKDKMAEAYSEIGMKGERRRGKGHDGLYQGLSTATKDTYDALHMQALPPR
  EC50 of specific killing of HeLa cells by primary T cells: ~10000 HLA-E molecules
